# Laboratory results as given in patent US20250282870A1 (BIOENTRE, published 2025).
# T1: human CTLA4 expressed on Jurkat T cells (CTLA4 effector cells) (human, UniProt P16410 36-223)
# T1 sequence (looked up): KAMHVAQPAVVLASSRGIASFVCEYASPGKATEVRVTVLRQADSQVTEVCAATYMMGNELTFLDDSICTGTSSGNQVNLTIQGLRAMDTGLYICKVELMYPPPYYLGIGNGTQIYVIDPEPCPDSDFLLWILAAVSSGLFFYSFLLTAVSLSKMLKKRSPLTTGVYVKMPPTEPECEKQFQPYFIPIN
# Tests used:
# [1] = molecular target: T1, human CTLA4 expressed on Jurkat T cells …; assay: cell-based or functional assay
# [2] = molecular target: FcγRII (CD32) expressed on Raji cells; assay: cell-based or functional assay
Binder,"activity titration curve, CTLA4 blockade assay, against 26 HuIgG1 [1]",RLU ratio of the CTLA4 blockade assay with anti-CD32 antibody at 10 µg per ml [2]
26 F(ab')2 (synthetic) (other) VH: QVQLKESGPGLVAPSQSLSITCTVSGFSLTSYGVYWVRQPPGKGLEWLGVIWAGGTTNYNSALMSRLSISKDNSKSQVFLKMSSLQTDDTAMYYCARGPPHAMMKRGYAMDYWGQGTSVIVSS VL: QNVLTQSPAIMPASPGEKVTMTCSATSSITYMSWYQQKSGSSPRLLIYDTSNLASGVPVRFSGSGSGTSYSLTISRMEAEDAATYYCQQWSSYPLTFGAGTKLELK,> 2 fold of 26 HuIgG1,–
"26 HuIgG1 (chimeric antibody: VH and VL of mouse antibody 26 on a human IgG1 scaffold) (antibody, V domains shown) VH: QVQLKESGPGLVAPSQSLSITCTVSGFSLTSYGVYWVRQPPGKGLEWLGVIWAGGTTNYNSALMSRLSISKDNSKSQVFLKMSSLQTDDTAMYYCARGPPHAMMKRGYAMDYWGQGTSVIVSS VL: QNVLTQSPAIMPASPGEKVTMTCSATSSITYMSWYQQKSGSSPRLLIYDTSNLASGVPVRFSGSGSGTSYSLTISRMEAEDAATYYCQQWSSYPLTFGAGTKLELK",–,~50%
